The target of test [1] is fusion protein of the human transferrin receptor extracellular domain linked to human IgG1 Fc (human) (UniProt P02786). The test is described as follows: ELISA, coated human TfR ECD-Fc, pH 5.5 against pH 7.4. (In general: An ELISA detects its analyte on a solid surface through an enzyme-linked reagent.)
The target is the same in test [2]. The test is described as follows: ELISA, coated human TfR ECD-Fc, pH 7.4.
The target is the same in test [3]. Briefly: ELISA, coated human TfR ECD-Fc, pH 5.5.

As usually defined, the EC50 is the midpoint of the concentration-response curve. A lower EC50 goes with a more potent agent.

Sequence of fusion protein of the human transferrin receptor extracellular domain linked to human IgG1 Fc (human) (P02786 89-760): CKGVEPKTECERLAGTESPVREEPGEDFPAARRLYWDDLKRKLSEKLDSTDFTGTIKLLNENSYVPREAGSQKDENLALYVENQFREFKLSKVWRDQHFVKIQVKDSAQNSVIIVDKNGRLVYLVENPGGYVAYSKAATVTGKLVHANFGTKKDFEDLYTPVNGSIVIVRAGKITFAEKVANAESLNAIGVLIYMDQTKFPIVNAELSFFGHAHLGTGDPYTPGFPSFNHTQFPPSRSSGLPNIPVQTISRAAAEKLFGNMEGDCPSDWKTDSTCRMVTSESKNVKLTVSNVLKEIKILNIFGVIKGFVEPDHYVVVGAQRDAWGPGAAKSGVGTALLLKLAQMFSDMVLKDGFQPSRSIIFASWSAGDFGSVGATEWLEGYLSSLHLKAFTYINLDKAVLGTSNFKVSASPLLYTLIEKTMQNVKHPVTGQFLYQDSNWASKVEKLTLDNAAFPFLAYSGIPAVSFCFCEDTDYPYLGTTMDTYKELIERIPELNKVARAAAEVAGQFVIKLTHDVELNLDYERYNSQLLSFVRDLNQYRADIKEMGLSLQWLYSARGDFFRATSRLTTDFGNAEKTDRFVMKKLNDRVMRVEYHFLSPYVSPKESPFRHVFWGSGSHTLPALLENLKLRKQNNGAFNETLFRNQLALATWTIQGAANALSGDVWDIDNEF

mAb MEM-189 (antibody): the ratio EC50 pH 5.5/EC50 pH 7.4 in test [1] was greater than 15.6. The EC50 in test [2] is 0.0642 µg/mL; in test [3], greater than 1 µg/mL.

On to mAb OKT-9 (antibody), for which, in test [1], the ratio EC50 pH 5.5/EC50 pH 7.4 was 10.6. The results for the EC50 in test [2] and in test [3] were 0.065 µg/mL and 0.691 µg/mL, respectively.

On to mAb MEM-75 (antibody), for which the EC50 in test [3] was 0.59 µg/mL.

The values above are taken from US20170174776A1.
